Here are results for eleven sequences from a protein production outcome set (Wang et al. 2014).

This data set can be described thus: label from the status in PepcDB records.
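Also: failed if final PepcDB status was selected cloned or expressed and not failed if soluble or beyond.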

Consider “MPDKFNMQSPPFNRLTAEQQHQLRSALDVAYFRQRDVLIDAQHPVTHLHILIKGTVEERSPDGKEVFAHYANDDLFDVRAMFEELSKHQYMALEDTLSYLLPKSIFLQLYEQNGEFAAYFDNNLAKRQELIEAAAQQKNIAEFILTKVDRSIYHPPFILSPEQPIHSVTQQLKERGIDAALVELHPSDPRLAHNHAHPYAIVTRTNMLHAVMLEGRPLDTPVGEIATFPVLHVDEGDFLFNAMVMMTRQRIKRVMVCLGNQAVGLLSLIQILSAFSTHSHVLTLAIARAASIDELALAANKQRELVESLMSRGVRTRFVMELIAAVNEQIIEKAFELVVPPALHDQCCLVVLGSEGRGEQILKTDQDNALIIQDGLEWHQCQPIMETLTHTLLQLGYPLCPGKVMVNNPKWVRSQSDWKRTLTDWVKAARPEQVMDIAIFADAHAVAGNRALLAPVKAHLQHLMAGQELILAEFTRPALNFSVPLTLFGNVKSSKQGIDIKQGGIFPIVHGVRALSLEHAIDANNTFDRIEALVKKRVLEQETGDNLSEAFKLFLKLRLAQQLGNQHSTNQLDFKQLDRTERDLLRHSLHVVKKFKQWLGYHYQIRD”, for which the protein production result was “failed”.
“MPDKPMQYVISRLIDNRTRTRILAPVSALTVKAAREKATGQLQAWREEHTQPSMSASPRFDVFVEQTWKPMIFEHWKPSTKRSVLPALNRRLLAHFGRYPLHMINHKMVQAWFDEISKTRKGAANRNLDTLQSVFKLALRQGHCLTNPCIGIRQNKRRVLNRFLSVAEMQRLSVALDECEAVGGSIAQCADVLRLLLLTGCRLSEITFLKGEYVRGNELHLPDSKTGAKVLYIGQAAVDILSRYHCKANTELFPMKQGASTSLVQSLWLRLRKQIGVEDVRLHDLRHTFASYAVMDGCSIPMVASLLGHKKVTMTLRYTHVGDDSVEQASEVIGAVFKGIFTQPEPPKPLIPRTNETPMPAVKVKQKRLPERKPTAKPKPKAVKKVKQVKPLQKLPTLTKEELRAIQRFRDSELFDRVKIG”: the protein production result is recorded as “failed”.
To “MPDLPLAPEALDLSPAFLEVAACPACHSRFALDFDSGELVCSSPSCGLAFLVRDGVPDLRLDAARKRETGQGVTAEDTEAFEPTHRHEMRPQ” belongs “failed”; to “MPDNEVDLLFAQLSPEDLIEWSDYLPESFTDRALAQMGERQRQRFELYDQYSENEIGRYTDHQMLVLSDKATVAQAQRFFRRIELDCNDNLFIVDEADKYLGTVRRYDIFKHEPHEPLISLLSEDSRALTANTTLLDAAEAIEHSREIELPVIDDAGELIGRVTLRAATALVREHYEAQLMATAGMDESDDLFAPILKGAQRRAV”, “not failed”.
For “MPDSPFVSVVVPVYNDPEGVKDTLHALVDQRDAPAFEVRVVDNDSTDETMQVIEAFAADHPEIYCHTETEIQSSYAARNTGIEHAGGDVIVFLDADVVVERTCLRDISRTFEGSDVDYVGCNVQMYNPGETDTFWTKYDLAMGLPVEHYLRRKRFAPTCALAVRREVIEAVGTFDDELVSGGDKEFGNRVSEAGFRMGFAEGIVAKHPARTSLKRNIQKSTRIGKGQVQLWAGYGLAAHPVSYTRYLPPDPQRVRNRRDAQFDLVSIYLAEILLKYVQSATVLYLYLKRLLKRVSGDTT”, the protein production result is reported as “failed”.
As to “MPEFTNNPVAECDTVFSEKDGKKIVDFIIYPAKNGDQWVGTAVEAKSMGFGGELKVLVGFDAEGKIYNYSLLSHAETPGLGSKAADWFKEGNKGSIKGMNPGEQPLTVSKDGGQVDAITASTITSRAFLNAVNAAYGAYKGDGGANGTTGASQKAVQKSETAIVDSVVIKLEHHHHHH”, the protein production entry is recorded as “not failed”.
“MPEIEIAAGSGDNNDALFGKYELGKLLGCGAFAKVFHARDRRTGQSVAVKILNKKKLLTNPALANNIKREISIMRRLSHPNIVKLHEVMATKSKIFFAMEFVKGGELFNKISKHGRLSEDLSRRYFQQLISAVGYCHARGVYHRDLKPENLLIDENGNLKVSDFGLSALTDQIRPDGLLHTLCGTPAYVAPEILSKKGYEGAKVDVWSCGIVLFVLVAGYLPFNDPNVMNMYKKIYKGEYRFPRWMSPDLKRFVSRLLDINPETRITIDEILKDPWFVRGGFKQIKFHDDEIEDQKVESSLEAVKSLNAFDLISYSSGLDLSGLFAGCSNSSGESERFLSEKSPEMLAEEVEGFAREENLRMKKKKEEEYGFEMEGQNGKFGIGICISRLNDLLVVVEARRRGGDGDCYKEMWNGKLRVQLIRVCDQTSSTNAAI”: the protein production entry is “failed”.
On to “MPEMADVMQTQAGDAGAFRHFDLSRVPTPCFVVDEVAIERNLKILRDISDRSGAHVLSALKAFSMFTLAPLVRQYLGGTCASGIYEARLGREEYGGEVATFCAGYKEQDIDEILSLSNHIIFNSPAQKDRFLSRAQAAGVQVGLRINPEHSEGEIAKYDPCAPCSRLGTPVSLLTPETLKGVDGLHMHTLCEQGFEPLLRTWAAVEPKLAPYLPGLKWLNFGGGHHITRADYDRDALIDFLKSLRARHGLDVYLEPGEAVALDAGILVGEILDLPSNGMDLAITDISATCHMPDVIEAPYRPALMDEADSGHTYRLGGPSCLAGDVIGDYTWDQPLTIGQRFAFLDQAHYSMVKTNTFNGVPLPTIALWNSKTDALRIVRQFDYSDFKDRLS”, for which the protein production result is “not failed”.
Turning to “MPEVSFIICTRNRVAVLEACLKSVQAACRAHAGFAAELVVVDNGSSDRTAERLASIAAMSDIPFTPVSEPRRGLAAARNAGLRRARGRVLVFVDDDCAVHCDYLRDLERHYASGEQGLIRGGRVELGDPRDLPFTIKRSRVCERLTPDIHPGGFVLGCNMTMHRDVAARIGDFDERFGAGGPLRSAEDTDYLVRAVLLGIPVEYVPDMTIFHHHGRRDRKAIEKLHRDYSLGNGGLCLKHIRHAPWLLRHFYWAARGALRELAGGPAFDRDLDLSHRPIVGMNVLGAARYALLLLARRPQAEPARQDQQANAEAPLLEHHHHHH”, the protein production entry was “failed”.
Turning to “MPEWAAFVGLTGFLLTALLGLARLSQGAVRSDGGVSSTVDGVSMADRDPTIPRFETQRAAAQRQQMRDTLAPSDVSTGALLANVAFTQGLFGVLLVAGAFYFEIPASAFGVTSDALSTGLPAVAIGIGAGIGFWVGNEGAAALADGFGVTFDESLRELLAPDSPGGWVILLGGVLPVIAIVEELLFRAAAIGVPVAGLNAPAWAMAIVASVAFALGHGAQGRVGIVVTGTLGLALAGLFIATNSLLAVVVAHYLVNALELLVHEGLGVDRLWA”, the protein production entry is “failed”.
For “MPFEDALAIVNAAMQTLLGRQLSDIETLIFEGSWQSKTYPQIADGAGYSINYLTTDVGPKFWKVLSQALGEPVNKKNFKAAIRRYCVVQSGGEWESEGFQTQLPSYPSILSWGEAPDVSQFYGREEEQALLQRWIEAERCRLIAVLGMGGIDKSTLTTKVVQGFVQGDGVEEWEGDNINIKKIQNPLQEGQSPTKFKIQHLPSSPATPFTHIIWRSLRNAPPLEALLAELIDLLSEHQETVGDRARLLHWLRKTRCLIVLDNLETILQAGDHAGYYRDGYGDYGELIQLLGETPHQSCVLLTSREKPAEIAVLEGLDGNTRTLQLSGSVATAIAIIQQKGLQGTEEQQQVLCDRYSYNPLALKIVSTTIQDLFDGDISAFLTEDAVIFNSIRRLLDAQFQRLTELEQAIIIWLAINRDWTAIAELAADLVPPVPKVKLLEALESLRWRGLIETQDKRYTLQPVVMEYVTERFIEQINQELEMGQPQYWQQFALLKLTVRDHITETQRRLIVHSTAAQFGDCFPSPELQRQQLQTVLTAIRESVIAGYGVGNLINLSNALDLDLAGFDFSQLTIRQADLRHRLFQHLNFAQANFRDSAFKQTFGSIFSLSYSPAGDYLITGDDVGVVRLWKSAEMQPMQSYPLHRSYVWDLRPSADGRWLATCSEDQTVKITNLATGQLQATLVVAPTIARAIVWIGPDCLAIGGIDGHIRLWYPFTEQAPVLVTAHTDIVNSLSWDANSNLLASSSSDSTVKLWDVETGICHRIWREAVPVRWATWSPDGHTLAISREDGGIVLWNPHSDQAPRYLNGHPETVWSLDWNPDGAWLASSSHDATVRLWDVVTGRCRRILRSHQNWVWYARWHPHQPRIISGGHDGTLKLWDTGTGQCLKSLTGHMANIRAIAPAPDGQTLALGCDDTIVRLCGADSPPSFIHAFGHSHLISDLCWNPTGENLASASHDCNLRVWQRSPLRCTQVLKGHTNWVWSVDWHPTQDLLASGSVDSTIRLWYPTQSTPVKTLMAQTSWILSVRWHPTGRWLASAAGDFTIGLWNSKTWECTHLLTGHTHWIWCLAWSPNGQYLASGGYDNTVFIWKVEKEVTSLRTLEHPTILSAIAWHPDGELLATSCHDGNIRLWHWQTGQCVTRISGHQGEILTLKFSPDGKRLYSSSQDETWKTWDWQTGTCLASDRLDRPYEGMNISEVRGLTEVRKAALRALGATEGSQPPGDLVRWLRKTEQGRKL”, the protein production result is on record as “failed”.
